This data set addresses T1, PrimPolY89D1-354 (polymerase domain) (human, UniProt Q96LW4 1-354, Y89D).
T1 sequence: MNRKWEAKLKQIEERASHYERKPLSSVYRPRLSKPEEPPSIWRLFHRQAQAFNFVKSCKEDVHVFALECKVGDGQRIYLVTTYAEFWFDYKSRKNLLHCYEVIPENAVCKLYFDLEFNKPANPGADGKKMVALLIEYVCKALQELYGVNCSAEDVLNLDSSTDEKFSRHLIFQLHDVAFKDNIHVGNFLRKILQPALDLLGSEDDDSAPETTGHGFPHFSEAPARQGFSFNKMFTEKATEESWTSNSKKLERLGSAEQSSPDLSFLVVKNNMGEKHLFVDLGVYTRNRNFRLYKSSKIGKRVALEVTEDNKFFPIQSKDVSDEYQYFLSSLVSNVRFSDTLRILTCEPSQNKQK
The data set is described as follows: EMSA; 10 mM Mg2+; EMSA: 60 nM DNA, 10 mM Bis-Tris-Propane-HCl pH 7.0, 10 mM MgCl2, 1 mM DTT, 25 C, 60 min; 5% polyacrylamide gel in 0.5x TBE. The following applies: protein: recombinant; label: 5'-Hex on strand 1 (HP-20); 20 bp duplex, 5' overhang 30 nt on template strand (S12), other end blunt. In general terms: In EMSA bound probe runs differently from free probe, usually more slowly.

B1: Overhanging DNA substrate (HP-20 primer / ND-50 TemplateTT) (dsDNA)
DNA 1: TGTCGTCTGTTCGGTCGTTC
DNA 2: CGCGCAGGGCGCACAACAGCCTTGAAGACCGAACGACCGAACAGACGACA
For B1, the Kd is 2.55 µM.

Broadly, the Kd is the constant that tells how readily two partners part at equilibrium.

The values above are taken from article PMC4231748, “Human PrimPol mutation associated with high myopia has a DNA replication defect”.
